B1: Pin3 (protein, UniProt Q06449 2-215, looked up)
[PSI+] inducibility protein 3: SASLINRSLTNIRTELDFLKGSNVISNDVYDQINKSLPAKWDPANAPRNASPASLEYVEALYQFDPQQDGDLGLKPGDKVQLLEKLSPEWYKGSCNGRTGIFPANYVKPAFSGSNGPSNLPPPPQYKAQELQQIPTQNSAASSYQQQPFPPPSTNYYQQPQQQPQQAPPPQQQQQQQQHQSSHSHLKSFGSKLGNAAIFGAGASIGSDIVNNIF
B2: Sho1 (protein, UniProt P40073 1-367, looked up)
High osmolarity signaling …: MSISSKIRPTPRKPSRMATDHSFKMKKFYADPFAISSISLAIVSWVIAIGGSISSASTNESFPRFTWWGIVYQFLIICSLMLFYCFDLVDHYRIFITTSIAVAFVYNTNSATNLVYADGPKKAAASAGVILLSIINLIWILYYGGDNASPTNRWIDSFSIKGIRPSPLENSLHRARRRGNRNTTPYQNNVYNDAIRDSGYATQFDGYPQQQPSHTNYVSSTALAGFENTQPNTSEAVNLHLNTLQQRINSASNAKETNDNSNNQTNTNIGNTFDTDFSNGNTETTMGDTLGLYSDIGDDNFIYKAKALYPYDADDDDAYEISFEQNEILQVSDIEGRWWKARRANGETGIIPSNYVQLIDGPEEMHR
B3: Abp1-1 (protein, UniProt P15891 2-592, looked up)
Actin-binding protein: ALEPIDYTTHSREIDAEYLKIVRGSDPDTTWLIISPNAKKEYEPESTGSSFHDFLQLFDETKVQYGLARVSPPGSDVEKIIIIGWCPDSAPLKTRASFAANFAAVANNLFKGYHVQVTARDEDDLDENELLMKISNAAGARYSIQTSSKQQGKASTPPVKKSFTPSKSPAPVSKKEPVKTPSPAPAAKISSRVNDNNDDDDWNEPELKERDFDQAPLKPNQSSYKPIGKIDLQKVIAEEKAKEDPRLVQKPTAAGSKIDPSSDIANLKNESKLKRDSEFNSFLGTTKPPSMTESSLKNDDDKVIKGFRNEKSPAQLWAERKAKQNSGNAETKAEAPKPEVPEDEPEGEPDVKDLKSKFEGLAASEKEEEEMENKFAPPPKKSEPTIISPKPFSKPQEPVKAEEAEQPKTDYKKIGNPLPGMHIEADNEEEPEENDDDWDDDEDEAAQPPLPSRNVASGAPVQKEEPEQEEIAPSLPSRNSIPAPKQEEAPEQAPEEEIEEEAEEAAPQLPSRSSAAPPPPPRRATPEKKPKENPWATAEYDYDAAEDNELTFVENDKIINIEFVDDDWWLGELEKDGSKGLFPSNYVSLGN
B4: Pex13 (protein, UniProt P80667 1-386, looked up)
Peroxisomal membrane protein …: MSSTAVPRPKPWETSASLEEPQRNAQSLSAMMTSNQQDSRPTEESNNSNSASESAPEVLPRPAALNSSGTYGESNTIPGIYGNSNYGIPYDNNPYSMNSIYGNSIGRYGYGGSYYGNNYGSFYGGGYGAGAGYGMNNGSGLGESTKATFQLIESLIGAVTGFAQMLESTYMATHNSFFTMISVAEQFGNLKEMLGSFFGIFAIMKFLKKILYRATKGRLGIPPKNFAESEGSKNKLIEDFQKFNDSGTINSNEKATRRKISWKPLLFFLMAVFGFPYLLNKFITKLQTSGTIRASQGNGSEPIDPSKLEFARALYDFVPENPEMEVALKKGDLMAILSKKDPLGRDSDWWKVRTKNGNIGYIPYNYIEIIKRRKKIEHVDDETRTH
B5: Ysc84 (protein, UniProt P32793 1-468, looked up)
Protein YSC84: MGINNPIPRSLKSETKKAAKVLRSFVKPNQVFGADQVIPPYVLKRAKGLAIITVLKAGFLFSGRAGSGVIVARLKDGTWSAPSAIAMAGAGAGGMVGVELTDFVFILNSEEAVRSFSEFGTITLGGNVSVSAGPLGRSAEAAASASTGGVSAVFAYSKSKGLFAGVSVEGSAILERREANRKFYGDNCTSKMILSGRVKVPPAADPLLRILESRAFNFTRHDHDDNASGDDFYDDGQYSDNTSHYYDDIPDSFDSTDESSTRPNTRSSRRRGMSLGSRSRYDDDYDDDGYGRGRGYGDFDSEDEDYDYGRSPNRNSSRNRGPQIDRGTKPRANTRWEDDLYDRDTEYSRPNHSGRDYDNTRGNRRGYGRERGYSLGHGPTHPSNMSNVDDLSHKMSKTGLGNESTATNSATPTAVALYNFAGEQPGDLAFKKGDVITILKKSDSQNDWWTGRTNGKEGIFPANYVRVS
B6: Sdc25 (protein, UniProt P0CF34 1-1048, looked up)
Putative truncated guanine …: MPITSSPDLFYLNDCDVVYWYDLTRLVCHYVNLTERDLLANEREKFLTSLDLLTAQITYVYMLFRNLRLVEDSFKKTLKKLIYTLSRFSINANIWFHSTLFEEREAIASQKDPERRSPLLQSILGTFQKFHFLLRLLHFLSNPNELTILPQLTPRFFKDSFNTISWNNPFLRKRLNQHMSHDLPRQMIKAVAGASGIVAENIDEIPASKQGTSCSSETSHHSPSAPFQRRRRGTIFSNVSGSSDESDTIWSKRKKPYPLNEETLSLVRARKKQLDGKLKQMIKSANEYLSNTANFSKMLNFEMNFKTYEEVSGTIPIIDILENLDLTIFLNLRELGDENRVFDEDVAIDDEDEEFLKHSLSSLSYILSDYFNMKQYFHDVVVKFIIVAQHLTLEDPFVFSPMQNDLPTGYYEPMKPSSLNLDNAKDKKNGSQNTDIQEEEDEYEPDPDSLILFHNLINQDSDFNDLKFFNLAHVFKKSCDDYFDVLKLAIEFVNQLILERENLLNYAARMMKNNITELLLRGEEGYGSYDGGETAEKSDTNAVYADSDTKDNDEWRDSQVKLPRYLQREYDSELIWGSNNRIKGGSKHALISYLTDNEKKDLFFDITFLITFRSIFTTTEFLSYLISQYNLDPPEDLCFEEYNEWVTKKLIPVKCRVVEIMTTFFKQYWFLGYDEPDLATLNLDYFAQVAIKENITGSVELLKEVNQKFKHGNIQEATAPMKTLDQQICQDHYSGTLYSTTESILAVDPVLFATQLTILEHEIYCEITIFDCLQKIWKNKYTKSYGASPGLNEFISFANKLTNFISYSVVKEADKSKRAKLLSHFIFIAEYCRKFNNFSSMTAIISALYSSPIYRLEKTWQAVIPQTRDLLQSLNKLMDPKKNFINYRNELKSLHSAPCVPFFGVYLSDLTFTDSGNPDYLVLEHGLKGVHDEKKYINFNKRSRLVDILQEIIYFKKTHYDFTKDRTVIECISNSLENIPHIEKQYQLSLIIEPKPRKKVVPNSNSNNKSQEKSRDDQTDEGKTSTKKDRFPKFQLHKTKKKAPKVSK

These molecules were tested on Abp1 (1xFLAG) (assay: Western blot expression level of Abp1 SH3-swapped baits (Fig. S2A-B)). Conditions: Flag signal relative to Abp1 WT (Abp1-1 to Abp1-4 = 1); sheet FigS2A-B.
Format: cell-based, Saccharomyces cerevisiae
Parameters: Flag (2 bands): unit not given here
Procedure: Precultures of yeast cells expressing baits fused with the DHFR F[1,2]-FLAG were grown overnight at 30 °C with agitation in synthetic complete medium. The next day, cells were expanded in synthetic complete medium to reach their exponential phase (OD600 of around 1.0), pelleted, and frozen at −80 °C. The equivalent of fifty OD600 of cells was resuspended in ice-cold yeast lysis buffer (10 mM Tris-HCl pH 7.4, 150 mM NaCl, 0.5 mM EDTA (Millipore Sigma), 1% Triton X-100 (Millipore Sigma), and one cOmplete Mini Protease Inhibitor Cocktail (Millipore Sigma) per 10 mL) with […] glass beads (Millipore Sigma) and disrupted at 4 °C by 10 cycles of 2 min vortexing and 2 min cooldown. The equivalent of […] of lysed cells was used for the immunoprecipitation of the bait proteins using FLAG-M2 agarose beads (Millipore Sigma). The beads were incubated with the cell lysates for 120 min at 4 °C with a slow rotation, followed by three washes with the yeast lysis buffer.
Protein extracts and affinity-purified baits from yeast and human lysed cells were migrated on 10% polyacrylamide gels. The separated proteins were then transferred to nitrocellulose membranes. Validation of correct protein loading was done with ponceau staining of the membranes. Before the primary antibody incubations, membranes were blocked in 5% milk. Protein signals were detected on an Amersham Imager 600RGB (GE Healthcare) following the incubation of the membranes with the appropriate HRP-conjugated secondary antibodies and the Clarity Western ECL Substrate (Bio-Rad). The antibodies used in this study are M2-HRP (A8592, Sigma, 1/50,000), rabbit anti-FLAG (F7425, Sigma, 1/1000), PAK (SC-881, Santa Cruz, 1/200), p130cas/BCAR1 (SC-860, Santa Cruz, 1/200), actin (Cell Signaling Technology, 1/2000), anti-mouse HRP (Cell Signaling Technology, 1/10,000) and anti-rabbit HRP (Cell Signaling Technology, 1/10,000). The quantification of the WB signals was performed with the Amersham Imager 600 analysis software (GE Healthcare).

Molecule	Ratio Swap/WT Flag
B1	0.2499
B2	0.6541
B3	1
B4	0.9802
B5	0.8764
B6	0.3589

Same assay, conditions: Western blot Flag signal (2 bands), Abp1 WT, SH3-deleted or SH3-swapped; sheet FigS2A-B

Molecule	Flag (2 bands)
B1	57952
B2	151709
B3	96800
B4	104696
B5	203262
B6	83248

The molecules below were run on Abp1 PPIs (assay: DHFR-PCA of Abp1 SH3-swapped baits (Fig. 2B-D, S2C, S2F)). Conditions: number of interactions of Abp1 carrying the named SH3; sheet FigS2A-B.
Format: cell-based, Saccharomyces cerevisiae
Method in brief: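 Interactions were scored by DHFR protein-fragment complementation. DHFR F[1,2]-tagged Abp1 strains, whose SH3 was swapped for yeast or human ortholog domains, were crossed on YPD at 30 °C for 48 h with a 1536-format array of 575 prey-DHFR F[3] strains and 40 negatives, giving four replicates per pair. PCA selection lasted 4 days after double diploid selection.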

Molecule	Interactions in Abp1
B1	99
B2	81
B3	86
B4	91
B5	108
B6	10
